According to paper PMC11066147 (Heliyon, 2024):
“Also recorded” adds a separate entry of the source.

What was measured:
[1] = target: T1, PfHsp70-z (Plasmodium falciparum, UniProt Q8IC01); assay: SPR self-association, immobilised ligand PfHsp70-z; assay type: binding
T1 sequence (Q8IC01 1-873): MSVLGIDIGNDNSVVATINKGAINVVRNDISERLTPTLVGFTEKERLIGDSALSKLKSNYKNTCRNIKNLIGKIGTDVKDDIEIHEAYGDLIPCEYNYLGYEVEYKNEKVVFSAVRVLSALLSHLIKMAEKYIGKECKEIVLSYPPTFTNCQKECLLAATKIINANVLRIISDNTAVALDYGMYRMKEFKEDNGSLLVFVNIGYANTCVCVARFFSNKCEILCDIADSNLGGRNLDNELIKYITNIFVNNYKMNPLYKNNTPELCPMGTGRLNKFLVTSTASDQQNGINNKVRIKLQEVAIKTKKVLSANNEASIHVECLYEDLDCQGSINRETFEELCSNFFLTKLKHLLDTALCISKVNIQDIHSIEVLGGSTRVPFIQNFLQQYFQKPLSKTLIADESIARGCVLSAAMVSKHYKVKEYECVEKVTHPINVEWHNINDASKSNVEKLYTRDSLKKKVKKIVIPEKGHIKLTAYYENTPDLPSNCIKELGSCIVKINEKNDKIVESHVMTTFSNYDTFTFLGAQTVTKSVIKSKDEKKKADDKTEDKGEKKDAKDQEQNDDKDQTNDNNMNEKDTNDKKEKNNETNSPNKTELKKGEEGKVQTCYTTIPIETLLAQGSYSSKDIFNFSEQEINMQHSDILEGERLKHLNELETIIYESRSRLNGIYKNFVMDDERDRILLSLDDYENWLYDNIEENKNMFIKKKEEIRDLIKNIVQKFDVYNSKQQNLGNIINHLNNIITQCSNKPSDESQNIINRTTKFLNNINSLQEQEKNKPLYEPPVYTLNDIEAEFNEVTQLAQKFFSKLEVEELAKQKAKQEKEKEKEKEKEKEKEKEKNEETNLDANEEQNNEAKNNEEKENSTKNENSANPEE

[2] = target: T2, PfHsp70-1 (Plasmodium falciparum, UniProt Q8IB24); conditions: previous study; ref [3]; cited from earlier work
[3] = target: T2, PfHsp70-1; assay: SPR heterologous association with PfHsp70-1; assay type: binding

T2 sequence (Q8IB24 1-677): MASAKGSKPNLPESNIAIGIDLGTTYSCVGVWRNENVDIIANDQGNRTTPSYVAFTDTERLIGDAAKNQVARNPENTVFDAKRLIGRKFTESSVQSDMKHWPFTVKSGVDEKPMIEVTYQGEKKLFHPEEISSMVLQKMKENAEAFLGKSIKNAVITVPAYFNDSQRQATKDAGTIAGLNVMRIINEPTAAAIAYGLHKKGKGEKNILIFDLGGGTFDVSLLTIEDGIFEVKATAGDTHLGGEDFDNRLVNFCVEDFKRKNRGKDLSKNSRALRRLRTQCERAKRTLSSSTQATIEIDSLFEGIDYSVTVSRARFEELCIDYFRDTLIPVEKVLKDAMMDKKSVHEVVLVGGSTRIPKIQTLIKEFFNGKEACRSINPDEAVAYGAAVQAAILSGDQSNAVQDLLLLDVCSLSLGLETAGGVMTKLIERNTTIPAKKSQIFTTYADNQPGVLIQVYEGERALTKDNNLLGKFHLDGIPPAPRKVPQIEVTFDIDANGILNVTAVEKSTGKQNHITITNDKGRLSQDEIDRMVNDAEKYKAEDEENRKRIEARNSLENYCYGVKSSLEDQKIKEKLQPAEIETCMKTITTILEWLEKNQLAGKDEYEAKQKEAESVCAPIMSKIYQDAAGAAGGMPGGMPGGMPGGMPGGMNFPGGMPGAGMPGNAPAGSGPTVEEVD

B1: PfHsp70-z: essential cytosol localised Hsp110 chaperone of Plasmodium falciparum, recombinant (protein)
chain: T1 sequence (Q8IC01 1-873)
nucleotide regulation of self-association ([1]; NN vs ADP/ATP): its self-association was nucleotide independent; also recorded: its oligomerisation was not regulated by nucleotide
KD self-association ([1]; apo state): 1.39 nM
effect of ATP on association [2]: ATP substantially enhances their association
affinity in apo- vs ADP-state ([3]; apo- and ADP-states): occurred within the same order of affinity
effect of nucleotide on heterologous association ([3]; relative to apo-state): ATP enhanced the direct association of the two chaperones
